{
  "source": "paper PMC7920998",
  "origin": "cited, not measured here",
  "test_system": "Glu122",
  "assay": "kinetics",
  "conditions": "enzyme reacting with O2 (non-native substrate); further details not given",
  "data": [
    {"substance": "Cytochrome c-dependent nitric oxide reductase (cNOR, PdNOR) (Paracoccus denitrificans)", "values": [
      {"measurement": "pKa", "result": "~ 6.6"}
    ]}
  ]
}
